Substitutions are numbered along the chain they refer to.
B1: I23RB83 (antibody, mouse IgG2a, kappa, V domains shown)
VH: DVQLQESGPGLVAPSQSLSITCTVSGFSLTNYDVHWVRQSPGKGLEWLGVIWSDGSTDYNAAFISRLSFSKDNSKRQVFFKMNSLQPDDTAIYYCARNNYYRYGRNPMDYWGQGTTVTVSS
VL: DIQMTQSPASQSASLGESVTITCLASQTIGSWLAWYQQKPGKSPQLLIYAATSLADGVPSRFSGSGSGTKFSFKISSLQAEDFVSYYCQQLYSSPLTFGGGTKLEIKR
notes: mouse immunization; mouse IgG2a/kappa
B2: I23RB82 (antibody, mouse IgG2a, kappa, V domains shown)
VH: QVQLKESGPGLVAPSQSLSITCTVSGFSLTNYALHWFRQSPGKGLEWLGVIWSDGSTDYNSPFISRLSISKDNSKSQVFFKMNSLQADDTAIYYCARSRSNYGRWYFDVWGAGTTLTVSS
VL: QIVLSQSHKFMSTSVGDRVSITCKASQDVSTAVAWYQQKPGQSPKLLIYSAFYRYTGVPDRFTGSGSGTDFTFTISSVQAEDLAVYYCQQHYSTPYTFGGGTKLEIKR
notes: as for B1
B3: I23RB86 (antibody, mouse IgG2a, kappa, V domains shown)
VH: EVQLQQSGAELVKPGASVKLSCKASGYTFTSYWLHWVKQRPGQGLEWIGEIDPSDSYTYYNQKFKGKATLTVDKSSSTAYMQLSSLTSEDSAVYYCARSPYDYDWGAYWGQGTSVTVSS
VL: DIVMTQSPSSMSVSLGDTVSITCHASQGISSNIGWLQQKPGKSFKGLIYHGTNLEDEVPSRFSGSGSGADYSLTIGSLESEDFADYYCVQYAQFPWTFGAGTKLEMKR
notes: as for B1
B4: I23RB77 (antibody, mouse IgG2a, kappa, V domains shown)
VH: DVQLQESGPGLVAPSQSLSITCTVSGFSLSRYSVHWVRQPPGKGLEWLGMIWGSGSTDYNSALKSRLSINKDNSKSQVFLKMNSLQTDDTAMYYCARVYYGGSPYAMDYWGQGTTVTVSS
VL: DIVMTQSPASLALSLGQRATISCRASESVDSYGNSFMHWYQQKPGQPPKLLIYLASNLESGVPARFSGSGSRTDFTLTIDPVEADDAAIYYCQQNNEEPNTFGAGTKLEMKR
notes: as for B1
B5: I23RB98 (antibody, mouse IgG2a, kappa, V domains shown)
VH: EFQLQQSGPELVKPGASVKMSCKASGYTFTNYYMHWVKQSHGKTIEWIGYIYPNSGDTSYNQKFKGKATLTVDKSSSTAYMELRSLTSEDSAVYTCARFGGFYDAMDYWGQGTTVTVSS
VL: DIVLTQSPAIMSASLGERVTMTCTASSSVSSSYLHWYQQKPGSSPKLWIYSTSNLASGVPARFSGSGSGTSYSLTISSMEAEDAATYYCHQYHRSPFTFGSGTKLEMKR
notes: as for B1
B6: I23RB57 (antibody, mouse IgG2a, kappa, V domains shown)
VH: B5 VH with T95N, T114S
VL: B5 VL with L4M, M107I
notes: as for B1
B7: I23RB270 (antibody, mouse IgG2a, kappa, V domains shown)
VH: QVQLVQSGAEVKKPGSSVKVSCKASGGTFDSYAISWVRQAPGQGLEWMGGIIPISGYANYAQKFQGRVTITADESTSTAYMELSSLRSEDTAVYYCARDLSGGYLGLRTLYYYYFDYWGQGTLVTVSS
VL: EIVLTQSPATLSLSPGERATLSCRASQSVSSYLAWYQQKPGQAPRLLIYDASNRATGIPARFSGSGSGTDFTLTISSLEPEDFAVYYCQQRSNWPLTFGQGTKVEIKR
notes: phage display; human V regions, mouse IgG2a/kappa constant regions
B8: I23RB268 (antibody, mouse IgG2a, kappa, V domains shown)
VH: QVQLVQSGAEVKKPGSSVKVSCKASGGTFSSYYIHWVRQAPGQGLEWMGGIIPIFGYANYAQKFQGRVTITADESTSTAYMELSSLRSEDTAVYYCARDPGSYGSVYYRRSYYFDYWGQGTLVTVSS
VL: B7 VL
notes: as for B7
B9: I23RB54 (antibody, mouse IgG2a, kappa, V domains shown)
VH: EVQLQQSGGGLVKPGGSLKLSCAASGFTFSSYAMSWVRQTPEKRLEWVAGISSGGSYIYYPDNVKGRFTISRDNARNTLYLQMSSLRSEDTAMYYCARKKSDYGAMDYWGQGTTLTVSS
VL: DIQMTQSPKFLLVSAGDRVTITCKASQSVSNDVAWYQQKPGQSPRLLIYYASNRYTGVPDRFTGSGYGTDFTFTISTVQAEDLAVYFCQQDYSSLPTFGAGTKLEMKR
notes: as for B1
B10: I23RB269 (antibody, mouse IgG2a, kappa, V domains shown)
VH: QVQLVQSGAEVKKPGSSVKVSCKASGGTFSDASISWVRQAPGQGLEWMGTIIPISGNANYAQKFQGRVTITADESTSTAYMELSSLRSEDTAVYYCARDRYVWYYWDGYFDYWGQGTLVTVSS
VL: not shown
notes: as for B7
B11: I23RB318 (antibody, mouse IgG2a, kappa, V domains shown)
VH: QVQLVQSGAEVKKPGSSVKVSCKASGGTFSSYAISWVRQAPGQGLEWMGGIIPIFGTANYAQKFQGRVTITADESTSTAYMELSSLRSEDTAVYYCARVRARHRGSFDYWGQGTLVTVSS
VL: DIQMTQSPSSLSASVGDRVTITCRASQSIDRWLNWYQQKPGKAPKLLIYYASSLQSGVPSRFSGSGSGTDFTLTISSLQPEDFATYYCQQSYSTPLTFGQGTKVEIKR
notes: as for B7
B12: I23RB313 (antibody, mouse IgG2a, kappa, V domains shown)
VH: QVQLVQSGAEVKKPGSSVKVSCKASGGTFSSYGISWVRQAPGQGLEWMGWISAIFGTTNYAQKFQGRVTITADESTSTAYMELSSLRSEDTAVYYCARGTVPGFDYWGQGTLVTVSS
VL: B11 VL with D30G, R31E, W32D, Y50A
notes: as for B7
B13: I23RB267 (antibody, mouse IgG2a, kappa, V domains shown)
VH: EVQLVQSGAEVKKPGESLKISCKGSGYSFTSYWIGWVRQMPGKGLEWMGIIYPGDSDTRYSPSFQGQVTISADKSISTAYLQWSSLKASDTAMYYCARVWYSSWDLDYWGQGTLVTVSS
VL: not shown
notes: as for B7
B14: I23RB93 (antibody, mouse IgG2a, kappa, V domains shown)
VH: QVQLKESGPGLVQPSQSLSITCTVSGFSLTSYGVHWVRQSPGKGLEWLGVIWSGVSTDYNAAFISRLSISKDNSKSQVFFKMNSLQADDTAIYYCARSRGSYYFDYWGQGTTLTVSS
VL: DIKMTQSPATLSVTPGDSVSLFCRASQSISNNLHWYQQKSHESPRLLIKYASQSISGIPSRFSGSGSGTDFTLSINSVETEDFGMYFCQQSNSWPLTFGGGTKLEIKR
notes: as for B1

Biological target: T1, rat IL-23R extracellular domain (ECD) protein (rat)
T1 construct: also called rat IL-23R ECD; F1LX96 amino acids 24-354
T1 chain: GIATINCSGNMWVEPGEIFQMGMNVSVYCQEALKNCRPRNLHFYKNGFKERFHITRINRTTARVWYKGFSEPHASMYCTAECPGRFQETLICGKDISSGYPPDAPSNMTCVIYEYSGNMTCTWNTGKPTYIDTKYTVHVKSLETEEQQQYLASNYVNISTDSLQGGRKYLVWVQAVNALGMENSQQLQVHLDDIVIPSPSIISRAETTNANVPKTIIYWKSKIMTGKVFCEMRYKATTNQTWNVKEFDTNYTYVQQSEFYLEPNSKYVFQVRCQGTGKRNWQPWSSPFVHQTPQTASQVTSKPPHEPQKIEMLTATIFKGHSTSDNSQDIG
Assay: SPR Biacore 8K, supernatant
Description: (§1) Affinity by SPR using Biacore 8K. Affinity measurements using Surface Plasmon Resonance (SPR) were performed using a Biacore 8K system (Cytiva). […] Approximately 9000-10000 RU (response units) of mAbs were immobilized. The kinetic experiments were performed at 25° C. in running buffer 1× of (HBS-P+ Buffer 10× (Cytiva #BR100671)+100 μg/ml BSA). To perform kinetic experiments, approximately 150 RU of mAbs were captured followed by injections of human IL-23R or rat IL-23R at concentrations ranging from 0.8 nM to 500 nM (in a 5-fold serial dilution). The association phase was monitored for 3 minutes at 50 μL/min, then followed by 30 minutes of buffer flow (dissociation phase). […] The collected data were processed using Biacore insight Evaluation software (Version 3.0.12.15655). The kinetic analysis of the data was performed using a Langmuir 1:1 binding model. The result for each mAb was reported in the format of Ka (On-rate), Kd (Off-rate) and KD (equilibrium dissociation constant).

Binder | binding result
B1 | no binding (tested: 500 nM)
B2 | no binding (tested: 500 nM)
B3 | no binding (tested: 500 nM)
B4 | no binding (tested: 500 nM)
B5 | no binding (tested: 500 nM)
B6 | no binding (tested: 500 nM)
B7 | no binding (tested: 500 nM)
B8 | no binding (tested: 500 nM)
B9 | no binding (tested: 500 nM)
B10 | no binding (tested: 500 nM)
B11 | no binding (tested: 500 nM)
B12 | no binding (tested: 500 nM)
B13 | no binding (tested: 500 nM)
B14 | no binding (tested: 500 nM)

These binders were tested against T2, Recombinant human IL-23 receptor (IL-23R) extracellular domain (ECD) protein (human, UniProt Q5VWK5 24-355) (assay: SPR Biacore 8K, supernatant, analysis 2).
T2 construct: also called human IL-23R ECD; hu IL-23R ECD
T2 sequence: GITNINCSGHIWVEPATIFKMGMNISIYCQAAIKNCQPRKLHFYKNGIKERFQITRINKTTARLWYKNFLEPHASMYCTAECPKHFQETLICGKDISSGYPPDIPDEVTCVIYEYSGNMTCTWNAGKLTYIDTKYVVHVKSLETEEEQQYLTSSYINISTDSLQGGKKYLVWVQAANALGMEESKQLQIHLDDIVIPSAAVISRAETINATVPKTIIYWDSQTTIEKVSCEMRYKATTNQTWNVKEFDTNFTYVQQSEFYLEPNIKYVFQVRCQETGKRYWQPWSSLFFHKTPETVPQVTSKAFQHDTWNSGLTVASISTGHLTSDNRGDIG
Description: as §1

Binder | Kd | koff | kon
B1 | 0.345 nM | 5.91e-05 s⁻¹ | 172000 M⁻¹ s⁻¹
B2 | 34.4 nM | 0.0136 s⁻¹ | 397000 M⁻¹ s⁻¹
B3 | 8.14 nM | 0.000572 s⁻¹ | 70300 M⁻¹ s⁻¹
B4 | 18 nM | 0.01 s⁻¹ | 556000 M⁻¹ s⁻¹
B5 | 25.8 nM | 0.0035 s⁻¹ | 136000 M⁻¹ s⁻¹
B6 | 38.1 nM | 0.00307 s⁻¹ | 80700 M⁻¹ s⁻¹
B7 | 2.46 nM | 0.00101 s⁻¹ | 409000 M⁻¹ s⁻¹
B8 | 18.9 nM | 0.000308 s⁻¹ | 16300 M⁻¹ s⁻¹
B9 | 183 nM | 0.0979 s⁻¹ | 534000 M⁻¹ s⁻¹
B10 | 1.41 nM | 0.000542 s⁻¹ | 385000 M⁻¹ s⁻¹
B11 | 21.4 nM | 0.00156 s⁻¹ | 72900 M⁻¹ s⁻¹
B12 | 4.85 nM | 0.000108 s⁻¹ | 22300 M⁻¹ s⁻¹
B13 | 7.56 nM | 0.000178 s⁻¹ | 23500 M⁻¹ s⁻¹
B14 | 2.9 nM | 0.00123 s⁻¹ | 423000 M⁻¹ s⁻¹

Each binder was assayed against T2, Recombinant human IL-23 receptor … (assay: SPR Biacore 8K, supernatant, analysis 1).
Description: as §1

Binder | Kd | koff | kon
B1 | 0.366 nM | 0.000119 s⁻¹ | 325000 M⁻¹ s⁻¹
B2 | 4.67 nM | 0.00247 s⁻¹ | 529000 M⁻¹ s⁻¹
B3 | 8.06 nM | 0.000587 s⁻¹ | 72800 M⁻¹ s⁻¹
B4 | 1.54 nM | 0.00214 s⁻¹ | 1.39e+06 M⁻¹ s⁻¹
B5 | 39.1 nM | 0.00294 s⁻¹ | 75100 M⁻¹ s⁻¹
B6 | 29.2 nM | 0.00299 s⁻¹ | 102000 M⁻¹ s⁻¹
B7 | 1.91 nM | 0.00102 s⁻¹ | 535000 M⁻¹ s⁻¹
B8 | 12 nM | 0.000273 s⁻¹ | 22800 M⁻¹ s⁻¹
B10 | 1.09 nM | 0.000514 s⁻¹ | 473000 M⁻¹ s⁻¹
B11 | 21.3 nM | 0.00167 s⁻¹ | 78400 M⁻¹ s⁻¹
B12 | < 4.98 nM | < 2.89e-05 s⁻¹ | 5800 M⁻¹ s⁻¹
B13 | 18.1 nM | 0.000196 s⁻¹ | 10800 M⁻¹ s⁻¹
B14 | 2.88 nM | 0.00138 s⁻¹ | 480000 M⁻¹ s⁻¹

From patent US20250179196A1 (Janssen / Centocor, published 2025)
